Data reported in the PETadex activity labels (doi:10.1007/s12010-013-0219-x).

B1: unnamed (protein)
chain: MPPHAARPGPAQNRRGRAMAVITPRRERSSLLSRALRFTAAAATALVTAVSLAAPAHAANPYERGPNPTDALLEARSGPFSVSEERASRFGADGFGGGTIYYPRENNTYGAVAISPGYTGTQASVAWLGERIASHGFVVITIDTNTTLDQPDSRARQLNAALDYMINDASSAVRSRIDSSRLAVMGHSMGGGGTLRLASQRPDLKAAIPLTPWHLNKNWSSVRVPTLIIGADLDTIAPVLTHARPFYNSLPTSISKAYLELDGATHFAPNIPNKIIGKYSVAWLKRFVDNDTRYTQFLCPGPRDGLFGEVEEYRSTCPF
B2: unnamed (protein)
chain: MAVMTPRRERSSLLSRALQVTAAAATALVTAVSLAAPAHAANPYERGPNPTDALLEASSGPFSVSEENVSRLSASGFGGGTIYYPRENNTYGAVAISPGYTGTEASIAWLGERIASHGFVVITIDTITTLDQPDSRAEQLNAALNHMINRASSTVRSRIDSSRLAVMGHSMGGGGTLRLASQRPDLKAAIPLTPWHLNKNWSSVTVPTLIIGADLDTIAPVATHAKPFYNSLPSSISKAYLELDGATHFAPNIPNKIIGKYSVAWLKRFVDNDTRYTQFLCPGPRDGLFGEVEEYRSTCPF

Tests used:
pNPB [1] = assay: Proxy for plastic degradation [Relative activity]
pNPB [2] = assay: Proxy for plastic degradation [kcat/Km (catalytic efficiency)] (µM⁻¹s⁻¹); conditions: pH 8
pNPB [3] = assay: Proxy for plastic degradation [p-nitrophenol (pNP) release] (% relative activity); conditions: pH 8

| Protein | Proxy for plastic degradation (pNPB [1]; pH 5) | Proxy for plastic degradation (pNPB [1]; pH 6) | Proxy for plastic degradation (pNPB [1]; pH 6.8) | Proxy for plastic degradation (pNPB [1]; pH 7.5) | Proxy for plastic degradation (pNPB [1]; pH 9) | Proxy for plastic degradation (pNPB [2]) | Proxy for plastic degradation (pNPB [3]; 25 °C) | Proxy for plastic degradation (pNPB [3]; 30 °C) | Proxy for plastic degradation (pNPB [3]; 37 °C) | Proxy for plastic degradation (pNPB [3]; 40 °C) | Proxy for plastic degradation (pNPB [3]; 45 °C) | Proxy for plastic degradation (pNPB [3]; 50 °C) | Proxy for plastic degradation (pNPB [3]; 55 °C) | Proxy for plastic degradation (pNPB [3]; 60 °C) | Proxy for plastic degradation (pNPB [3]; 70 °C) | Proxy for plastic degradation (pNPB [3]; 80 °C) | Proxy for plastic degradation (pNPB [3]; 15 h) | Proxy for plastic degradation (pNPB [3]; 30 h) | Proxy for plastic degradation (pNPB [3]; 40 h) | other results |
| --- | --- | --- | --- | --- | --- | --- | --- | --- | --- | --- | --- | --- | --- | --- | --- | --- | --- | --- | --- | --- |
| B1 | 35% | 60% | 75% | 90% | 75% | 1.35 | 31 | 37.5 | 45 | 70.5 | 75 | 95.5 | 100 | 93.5 | 74 | 67.5 | 98 | 50 | 40 | Proxy for plastic degradation (pNPB [3]; 0 h): 100 |
| B2 | 30% | 59% | 75% | 92% | 75% | 2.84 | 29 | 35.5 | 51 | 68.5 | 80.5 | 93.5 | 100 | 91.5 | 79 | 67 | 93 | 47 | 38 | Proxy for plastic degradation (pNPB [1]; pH 8): 100%; Proxy for plastic degradation (pNPB [1]; pH 8, 25 °C): 29%; Proxy for plastic degradation (pNPB [1]; pH 8, 30 °C): 35%; Proxy for plastic degradation (pNPB [1]; pH 8, 37 °C): 50%; Proxy for plastic degradation (pNPB [1]; pH 8, 40 °C): 69%; Proxy for plastic degradation (pNPB [1]; pH 8, 45 °C): 80%; Proxy for plastic degradation (pNPB [1]; pH 8, 50 °C): 93%; Proxy for plastic degradation (pNPB [1]; pH 8, 55 °C): 100%; Proxy for plastic degradation (pNPB [1]; pH 8, 60 °C): 92%; Proxy for plastic degradation (pNPB [1]; pH 8, 70 °C): 78%; Proxy for plastic degradation (pNPB [1]; pH 8, 80 °C): 65% |
